The source of these data is patent publication US6379928.

Common to all, as to assay: cell-based or functional assay
Assay [1] addresses chymosin polypeptide secreted by fungi transformed with pGRG1 (A. niger glucoamylase signal peptide fused to bovine prochymosin) (bovine) (UniProt P00794).
In assay [2] the target is chymosin polypeptide secreted by fungi transformed with pGRG2 (A. niger glucoamylase signal peptide and propeptide fused to bovine prochymosin) (bovine) (UniProt P00794).
Assay [3] addresses chymosin polypeptide secreted by fungi transformed with pGRG3 (bovine preprochymosin under the glucoamylase promoter) (bovine) (UniProt P00794).

For pepstatin (peptide), the Chymosin Activity (µg/ml) of pGRG1 broth after preincubation with pepstatin (0.2 without pepstatin) in assay [1] turned out to be 0.05 µg/ml. For the same substance, the Chymosin Activity (µg/ml) of pGRG2 broth after preincubation with pepstatin (0.1 without pepstatin) in assay [2] worked out at 0 µg/ml. Also, in assay [3], the Chymosin Activity (µg/ml) of pGRG3 broth after preincubation with pepstatin (3 without pepstatin) was determined as 0.6 µg/ml.
